# According to the supplement of paper PMC12764529:
# ± gives the half width of the 95% confidence interval.
# Assay: folding stability dG unfold from trypsin proteolysis; higher = more stable
# Summary of the method: (§1)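 Digests were run with trypsin and chymotrypsin at 11 concentrations in threefold dilutions, plus a no-protease condition, on designed mini-proteins in a PA-tagged cDNA display construct. The mini-proteins were under 80 residues, had no cysteine, and were kept only when AlphaFold2 dimer inter-PAE was above 15. After sequencing, Bayesian fitting of the counts gave K50, from which unfolding free energy was derived against a sequence-predicted unfolded-state K50 and a shared folded-state K50, per protease or combined.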
row,Sequence,folding stability dG unfold [kcal/mol]
1,SAGGSAGGSAGGMTPEEIEAALQKAREENSEDEEFTVTVTDPETGEVLTIRIDPNSVTIESAGGSAGGSAGG [r7_45_JUSTAS],1.15 ± 0.034
2,SAGGSMTVETSISRLPDGTYTVTVTFTLKNPDGSPVGTITIPVTMSPEVLAKTPLETVVAEAVAAASAGGSA [r2_421_JUSTAS],2.44 ± 0.056
3,SAGGSAGGMVVGILTITDPATGSSETLVIPMPSEEEAVERAKELAEELEAKKGKIVKVEIRPRPSAGGSAGG [r6_787_JUSTAS],1.39 ± 0.064
4,SAGGSAGGSTIRIRVKTREEAERLAKLIPGARITYDEETKEFYLEIRLPPAPPPSLEELKAALSAGGSAGGS [r20_191_TrROS_Hall],3.62 ± 0.062
5,SAGGSAGGMELISEKPAKVKYGDKEAEVWVKLVKIPNTDEVLVTLYFPGSGKPRIIPAKDVEIESAGGSAGG [r6_263_TrMRF],0.655 ± 0.1
6,SAGGSMGSKKVGEIELEVEIGDEKVKVKVTLYETESPDDSVSLTLDVDVEHPNGKKISKELFEKLFSAGGSA [r2_363_TrMRF],1.15 ± 0.064
7,SAGGYVRIRIELQEKRKPPDGKQQQRKKKITITVRLPPNEEMRMPDGKDIDPGKSAEELADYALDNLSAGGS [r16_440_TrROS],2.16 ± 0.08
8,SAGGSAGGMPVSVEIELTVPTSPDETPEEALERIREELAPLGVEEVTATPLPDGTVRFRITVPRSAGGSAGG [r6_882_JUSTAS],1.44 ± 0.048
9,SAGGSAGGSLTVSFPGITLTLETVPGTGKIIATVTFPGGEVRTISSDVPLSELPPVVREALELLSAGGSAGG [r6_749_JUSTAS],2.72 ± 0.087
10,SAGGSAGGSAGMPLYIIEVEKEDGSKITITIPENMTEEEIKKIAEELGIKKVEIIKKEDLSAGGSAGGSAGG [r11_490_TrROS_Hall],1.91 ± 0.061
11,SAGGSAGGSAGGSVTSTSSVGSSPGSTTTLTYPEKPLYVTVYTELKDDPTVVTTETFPLLSAGGSAGGSAGG [r7_509_JUSTAS],1.22 ± 0.19
12,SAGGSAGGSSAPPGEVRTEAVSLTVRSTVPITYPNSPTTTLSLTTTLTVTLTREVSPVRPEVESAGGSAGGS [r20_14_JUSTAS],2.88 ± 0.21
13,SAGGSAGGSAMYKVTIEIPETGKIYTFTHPGTAEEALAAALPEIGVSKEKIKKITVTPTEESAGGSAGGSAG [r3_79_JUSTAS],0.312 ± 0.079
14,SAGGMAIKDVRVEGGVLYVYRGDKLVAKIEPGAAQPPVLVRFPDGTVVAVPRSVALALNPETLEFFDVSAGG [r13_802_TrMRF],1.24 ± 0.032
15,SAGGSAGGSAGMEISTKTLPGDKYELTITLPDSKGTPITVTITFTSEEEAKKKLEEIIKKSAGGSAGGSAGG [r11_819_JUSTAS],1.29 ± 0.068
16,SAGGSAMTIEIVVPTLEAIEKLAEETGAEVVEVRFFEEEGLVVVRIKVPESKEELLEKIREALGLESAGGSA [r15_118_TrROS_Hall],2.17 ± 0.069
17,SAGGSAGGMVTITEVSYDPKIGKTFTLVTVKDPEGKETLVEVPLEEIEKLIEEVPEGRPVEIAPSAGGSAGG [r6_113_JUSTAS],-0.0621 ± 0.054
18,SAGGSAGGSAGGTLEAIKELAKDMPPGDKNIPIKIPDGKPYTIDVEMDPDGKMEIDIEPSAGGSAGGSAGGS [r10_1017_TrROS],1.19 ± 0.041
19,SAGGMKLEILEKSENRIIIRTDEGKIYIAPEIVKKLKEKGGNIKPTLDEIIEWLEKNNIPAEDAVFGDSAGG [r13_610_TrMRF],0.689 ± 0.028
20,SAGGKFDIMVKVEPPDGKEEELPIKFDSPEEIIEEARAIAEQHGPGDKLKVEIYYPGTGRPIEFEIPSAGGS [r8_107_TrROS],0.799 ± 0.043
21,SAGMPEIVKVKVKIKVNIPVFDKNGKLIGLIPKEYEFEIEAPYEEIKNIIESLPENAEVVEILEIENESAGG [r19_114_TrMRF],4.27 ± 0.68

# Assay: folding stability dG unfold from chymotrypsin proteolysis; higher = more stable
# Summary of the method: as §1
row,Sequence,folding stability dG unfold [kcal/mol]
1,SAGGSAGGSPNTVPIPIRVEWYDPKDGEPKDEHPFNINFKTEEEAEDIIDNIAPDHPGMKIEISAGGSAGGS [r12_1043_TrROS],-0.322 ± 0.11
2,PFRVMVDLERDPEDGWYKVTIMVQAKDGRPITPELIENAAREIFKQGFPIKKIKLEPYPNGYVHFKIEIPLS [r1_408_TrROS],2.88 ± 0.037
3,SAGGMTLTLTIKVKTTTVEKDAATGKETVRTETRTLTVTIEAESEEEALAALKKLLEELGFEIVEVTSAGGS [r16_459_TrROS_Hall],5.1 ± 0.22
4,SAGGSAGGSMKYTLLSTRKNPDGTELRLIEVSEDPEKAKEYLESQGAVEIEFKKNIMTVTFKSSAGGSAGGS [r20_222_JUSTAS],-0.321 ± 0.32
5,SAGGSAGGSAGGSEKPPIKLKIKVYDPETNELVSEVEVELEPGQSLEELLKKFDVVEIESAGGSAGGSAGGS [r4_187_TrROS_Hall],2.94 ± 0.064
6,SAGGSAGGSAGGELKAKFETFPSPYGKVILAEAEFEEPNLLAAIVIDEDGVPHLLVVSPDSAGGSAGGSAGG [r7_187_TrMRF],0.858 ± 0.076
7,SAGGEEVVVERPPAPPPITVTIEYDEETNTVTVTVTLPNGETLTITVEAPSLEEAEAAARELLEALSSAGGS [r16_319_TrROS_Hall],2.96 ± 0.37
8,SAGGITIELRNPNGEPVEVHLKRDPDGTLELSVHMRGPEGRHYMVTMTIKVKNNGIEIDKFDNWYPLPSAGG [r13_451_TrROS],4.16 ± 0.084
9,SAGGSAGGEIVITLPNVKSKEEAKKAAEKLIEELKKKGIKDKTIKVTVIDEKTGKEYTFTIKLKSAGGSAGG [r6_237_TrROS_Hall],4.38 ± 0.16
10,SAGGSAGGPVVISVPALVKLAKELGLKLVFFPETKTVILEHPDSFLIATIDSKGNVSIAPALPESAGGSAGG [r6_155_TrMRF],2.59 ± 0.049
11,SAGGSAMKKLTIELPDPDITPEEAEKRAREIAEKIAEGNYKVEEIKVEPVDPEKNVYRGTVIIKELSAGGSA [r15_96_JUSTAS],0.365 ± 0.27
12,SAGGSAGGSAGMWIDEDTIRRLAALLGYPGKVEVVRLEDGSLLVVVYGDTEPGVLLFPLDSAGGSAGGSAGG [r11_410_TrMRF],2.255 ± 0.017
13,SAGGSAGGSAGPNIYVSIKWKHNNGPVTHQIPIPPNDPPEILDEMSKQPGFKVTDIEVMPSAGGSAGGSAGG [r11_692_TrROS],-0.0146 ± 0.3
14,SAGSKELVIVEKDEPVEGETLDYTNGKKKKFPKKVPVVKEIVLPKNSPEAEKIAKELSPPNVKVEILAKSAG [r5_468_JUSTAS],-0.322 ± 0.11
15,SAGKYKIKNVQFSNNSITIEIYDDGKPKAEIPIPPNFPNMKVDAEIDEDGSIKIKFRFNGQPQEIEIPPSAG [r5_533_TrROS],1.54 ± 0.17
16,SAGFKIDDVETEKDPDGEKEITFRYVDPGDGRPWMLNLRINPNGKLTEENPVPFDDFPPGSYWTIRIKSAGG [r19_393_TrROS],-0.0517 ± 0.41
17,WRIRVEIEMYNPDGDPMEMEIQIPVDKLQELRQEGEPFTKEELVDEIVEIIRDMMPEHGMPIEIKIVEIVPS [r1_174_TrROS],1.76 ± 0.074
18,SMTRVKVELLITNPATGETFYYDIEATEEEAEEIAKELEESYPEKNATVTIKKKEVIPVEPPVVLPEGILSA [r9_14_JUSTAS],0.906 ± 0.057
19,SAGGSAGGGSMSMPVTTKLVEEYTFPGTKEEAEEFLKKKLPPNYQVEITETPDSIKVKVYKVEGSAGGSAGG [r6_953_JUSTAS],2.36 ± 0.042
20,SAGMNTITFEYKTKDHYVKIDVQVYPPNEGYIRISIEIYNKDGEPKKEVKITIPAPPGDPAVRDFLDQFSAG [r5_964_TrROS],2.74 ± 0.047
21,SAGGSAGGSDDSPEDAQKQQAKPEIKIKLHIRFPDGKEYDLDEPFEFPINGQPMRISSIDIVYSAGGSAGGS [r12_43_TrROS],1.18 ± 0.21

row,Sequence,folding stability dG unfold [kcal/mol]
1,SAGGSAGGSAGGMTPEEIEAALQKAREENSEDEEFTVTVTDPETGEVLTIRIDPNSVTIESAGGSAGGSAGG [r7_45_JUSTAS],-0.0816 ± 0.11
2,SAGGSMTVETSISRLPDGTYTVTVTFTLKNPDGSPVGTITIPVTMSPEVLAKTPLETVVAEAVAAASAGGSA [r2_421_JUSTAS],3.48 ± 0.048
3,SAGGSAGGMVVGILTITDPATGSSETLVIPMPSEEEAVERAKELAEELEAKKGKIVKVEIRPRPSAGGSAGG [r6_787_JUSTAS],1.5 ± 0.088
4,SAGGSAGGSTIRIRVKTREEAERLAKLIPGARITYDEETKEFYLEIRLPPAPPPSLEELKAALSAGGSAGGS [r20_191_TrROS_Hall],1.96 ± 0.038
5,SAGGSAGGMELISEKPAKVKYGDKEAEVWVKLVKIPNTDEVLVTLYFPGSGKPRIIPAKDVEIESAGGSAGG [r6_263_TrMRF],0.836 ± 0.18
6,SAGGSMGSKKVGEIELEVEIGDEKVKVKVTLYETESPDDSVSLTLDVDVEHPNGKKISKELFEKLFSAGGSA [r2_363_TrMRF],2.14 ± 0.033
7,SAGGYVRIRIELQEKRKPPDGKQQQRKKKITITVRLPPNEEMRMPDGKDIDPGKSAEELADYALDNLSAGGS [r16_440_TrROS],1.68 ± 0.077
8,SAGGSAGGMPVSVEIELTVPTSPDETPEEALERIREELAPLGVEEVTATPLPDGTVRFRITVPRSAGGSAGG [r6_882_JUSTAS],0.504 ± 0.2
9,SAGGSAGGSLTVSFPGITLTLETVPGTGKIIATVTFPGGEVRTISSDVPLSELPPVVREALELLSAGGSAGG [r6_749_JUSTAS],2.67 ± 0.051
10,SAGGSAGGSAGMPLYIIEVEKEDGSKITITIPENMTEEEIKKIAEELGIKKVEIIKKEDLSAGGSAGGSAGG [r11_490_TrROS_Hall],1.8 ± 0.053
11,SAGGSAGGSAGGSVTSTSSVGSSPGSTTTLTYPEKPLYVTVYTELKDDPTVVTTETFPLLSAGGSAGGSAGG [r7_509_JUSTAS],1.73 ± 0.066
12,SAGGSAGGSSAPPGEVRTEAVSLTVRSTVPITYPNSPTTTLSLTTTLTVTLTREVSPVRPEVESAGGSAGGS [r20_14_JUSTAS],3.84 ± 0.085
13,SAGGSAGGSAMYKVTIEIPETGKIYTFTHPGTAEEALAAALPEIGVSKEKIKKITVTPTEESAGGSAGGSAG [r3_79_JUSTAS],1.36 ± 0.11
14,SAGGMAIKDVRVEGGVLYVYRGDKLVAKIEPGAAQPPVLVRFPDGTVVAVPRSVALALNPETLEFFDVSAGG [r13_802_TrMRF],1.44 ± 0.087
15,SAGGSAGGSAGMEISTKTLPGDKYELTITLPDSKGTPITVTITFTSEEEAKKKLEEIIKKSAGGSAGGSAGG [r11_819_JUSTAS],2.7 ± 0.11
16,SAGGSAMTIEIVVPTLEAIEKLAEETGAEVVEVRFFEEEGLVVVRIKVPESKEELLEKIREALGLESAGGSA [r15_118_TrROS_Hall],2.1 ± 0.092
17,SAGGSAGGMVTITEVSYDPKIGKTFTLVTVKDPEGKETLVEVPLEEIEKLIEEVPEGRPVEIAPSAGGSAGG [r6_113_JUSTAS],-0.983 ± 0.64
18,SAGGSAGGSAGGTLEAIKELAKDMPPGDKNIPIKIPDGKPYTIDVEMDPDGKMEIDIEPSAGGSAGGSAGGS [r10_1017_TrROS],-0.634 ± 0.86
19,SAGGMKLEILEKSENRIIIRTDEGKIYIAPEIVKKLKEKGGNIKPTLDEIIEWLEKNNIPAEDAVFGDSAGG [r13_610_TrMRF],1.11 ± 0.064
20,SAGGKFDIMVKVEPPDGKEEELPIKFDSPEEIIEEARAIAEQHGPGDKLKVEIYYPGTGRPIEFEIPSAGGS [r8_107_TrROS],-0.17 ± 0.18
21,SAGMPEIVKVKVKIKVNIPVFDKNGKLIGLIPKEYEFEIEAPYEEIKNIIESLPENAEVVEILEIENESAGG [r19_114_TrMRF],2.29 ± 0.29
